Read-outs that look alike come from different tables or passages of the source. Non-standard residues stand in square brackets, D forms with d. Primed or numbered codes have the meaning given here. No end group written: not given here. APC = aminopyrrolidine carboxylic acid (2-aminopyrrolidine-4-carboxylic acid); ACPC″ = 2-aminocyclopentane carboxylic acid (X); ACPC = 2-aminocyclopentane carboxylic acid; Aib = CC(C)(N)C(=O)O

The target of experiment [1] is T1, PTHR-1 (species and cells not stated for the assay) (Homo sapiens (Human), UniProt Q03431 27-593).
T1 sequence: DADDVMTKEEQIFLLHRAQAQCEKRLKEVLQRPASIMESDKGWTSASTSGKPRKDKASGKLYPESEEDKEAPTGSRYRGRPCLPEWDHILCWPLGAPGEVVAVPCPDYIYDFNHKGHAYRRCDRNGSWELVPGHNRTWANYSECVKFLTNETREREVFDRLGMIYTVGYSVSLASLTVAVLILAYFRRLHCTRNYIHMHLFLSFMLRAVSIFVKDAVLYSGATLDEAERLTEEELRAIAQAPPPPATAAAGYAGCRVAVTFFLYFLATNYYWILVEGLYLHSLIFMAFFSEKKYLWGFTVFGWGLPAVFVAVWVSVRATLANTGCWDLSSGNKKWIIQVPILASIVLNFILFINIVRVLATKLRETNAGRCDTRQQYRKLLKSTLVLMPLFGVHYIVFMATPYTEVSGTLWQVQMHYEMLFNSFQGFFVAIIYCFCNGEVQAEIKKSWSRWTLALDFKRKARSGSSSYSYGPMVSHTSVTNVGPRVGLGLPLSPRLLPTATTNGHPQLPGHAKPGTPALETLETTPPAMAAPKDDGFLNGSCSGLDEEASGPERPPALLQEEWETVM
As to the kind of experiment: cell-based or functional assay.

In experiment [2] the target is T1, PTHR-1 (species and cells not stated …). As to the kind of experiment: cell-based or functional assay. This is another data set of the same source.
For experiment [3], the target named is parathyroid hormone receptor-2 (PTHR-2). Briefly: cell-based or functional assay.
parathyroid hormone receptor-2 (PTHR-2), sequence (P49190 whole entry): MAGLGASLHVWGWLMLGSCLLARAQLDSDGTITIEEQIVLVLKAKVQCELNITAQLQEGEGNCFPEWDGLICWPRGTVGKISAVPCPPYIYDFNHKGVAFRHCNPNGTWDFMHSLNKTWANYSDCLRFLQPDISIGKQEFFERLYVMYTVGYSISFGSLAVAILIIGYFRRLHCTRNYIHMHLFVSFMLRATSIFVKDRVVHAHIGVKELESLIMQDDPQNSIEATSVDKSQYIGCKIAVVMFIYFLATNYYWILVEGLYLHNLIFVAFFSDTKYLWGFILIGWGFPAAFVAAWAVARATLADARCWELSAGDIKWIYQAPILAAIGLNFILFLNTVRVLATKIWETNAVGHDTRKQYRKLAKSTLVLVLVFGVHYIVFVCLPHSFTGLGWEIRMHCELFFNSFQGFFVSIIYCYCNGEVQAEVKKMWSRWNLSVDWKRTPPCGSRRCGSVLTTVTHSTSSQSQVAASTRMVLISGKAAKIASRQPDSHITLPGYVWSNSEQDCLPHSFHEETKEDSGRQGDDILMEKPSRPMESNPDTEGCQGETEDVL
The target of experiment [4] is T2, human parathyroid hormone receptor 1, wild-type (hPTHR-1) (human, UniProt Q03431 27-593).
T2 sequence (looked up): T1 sequence
As to the kind of experiment: cell-based or functional assay.

Experiment [5] addresses T2, human parathyroid hormone receptor 1, …. As to the kind of experiment: cell-based or functional assay. The source holds these as a separate data set.
Experiment [6] has as its target T1, PTHR-1 (species and cells not stated …). As to the kind of experiment: cell-based or functional assay. The source holds these as a separate data set.
Experiment [7] addresses T2, human parathyroid hormone receptor 1, …. As to the kind of experiment: cell-based or functional assay. The source holds these as a separate data set.
In experiment [8] the target is T3, delNT PTHR1 (human, UniProt Q03431 27-593).
T3 sequence (looked up): T1 sequence
Briefly: cell-based or functional assay.

In experiment [9] the target is T1, PTHR-1 (species and cells not stated …). As to the kind of experiment: cell-based or functional assay. This is another data set of the same source.
Experiment [10] deals with T4, rat parathyroid hormone receptor 1, wild-type (rPTHR-1) (rat, UniProt P25961 27-591).
T4 sequence (looked up): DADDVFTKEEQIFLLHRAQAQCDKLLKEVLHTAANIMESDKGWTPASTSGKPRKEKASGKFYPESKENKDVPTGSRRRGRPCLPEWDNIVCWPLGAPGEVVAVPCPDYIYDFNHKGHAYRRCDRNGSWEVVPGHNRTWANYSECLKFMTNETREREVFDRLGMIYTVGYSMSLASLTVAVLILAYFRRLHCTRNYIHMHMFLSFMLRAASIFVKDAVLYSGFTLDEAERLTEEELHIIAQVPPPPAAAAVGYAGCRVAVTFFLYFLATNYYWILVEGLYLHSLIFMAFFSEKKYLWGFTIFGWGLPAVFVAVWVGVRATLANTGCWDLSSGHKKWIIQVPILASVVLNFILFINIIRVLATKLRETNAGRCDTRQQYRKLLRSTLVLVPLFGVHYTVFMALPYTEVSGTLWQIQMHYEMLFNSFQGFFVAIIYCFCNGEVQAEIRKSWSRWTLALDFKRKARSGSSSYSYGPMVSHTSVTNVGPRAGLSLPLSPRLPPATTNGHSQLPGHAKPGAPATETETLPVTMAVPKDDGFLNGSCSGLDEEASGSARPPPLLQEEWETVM
Briefly: cell-based or functional assay.

Experiment [11] has as its target T4, rat parathyroid hormone receptor 1, …. Briefly: cell-based or functional assay. This is another data set of the same source.
The target is the same in experiment [12]. Briefly: cell-based or functional assay. Details: AUC-on / AUC-washout: unit not given beside the values.
For experiment [13], the target named is T2, human parathyroid hormone receptor 1, …. Briefly: cell-based or functional assay. This is another data set of the same source.
Experiment [14] has the same target. Briefly: cell-based or functional assay. This is another data set of the same source.
Experiment [15] shares this target. Briefly: R0 state; 125I-PTH(1-34) displacement; COS-7 membranes, hPTHR-1, GTPγS. The text has this: ^aValues are means of n ≧4 experiments, each performed in duplicate.
Experiment [16] has the same target. The experiment is described as above. The text has this: FIGS. 6A, 6B, 6C, 6D, 6E, and 6F constitute a series of graphs depicting binding of various analogs to the R⁰ and RG forms of human PTHR-1 (hPTHR-1). […] Data are means (±SEM) of n≧4 experiments, each performed in duplicate.
This is another data set of the same source.

For experiment [17], the target named is T4, rat parathyroid hormone receptor 1, …. As to the kind of experiment: R0 state; 125I-PTH(1-34) displacement; COS-7 membranes, rPTHR-1, GTPγS. The text has this:
(§1) Binding inhibition constants are expressed as the -log (IC50) and corresponding nanoMolar (nM) values. Values are means (±SEM) of the number of experiments shown (n), each performed in duplicate.

Experiment [18] has the same target. Briefly: RG state; 125I-M-PTH(1-15) displacement; COS-7 membranes, rPTHR-1 + Gαs mutant.
Description: as §1

As to [ACPC″]VSE[ACPC″]Q[ACPC″]MHNLGK[ACPC″]LNS[ACPC″]ERV[APC]WLR[APC]KLQ[ACPC″]VHN[ACPC″]-NH2 [FcycD6_ACPC(1,5,7)], in [1], the “Fold PTH” value is 234 fold and the “cAMP EC50” value was 19.1 nM. The “cAMP EC50” value in experiment [2] worked out at 25.9 nM. Moreover, in [3], the “cAMP response PTH2R/PTH1R” value was determined as 45 ratio.
On to [ACPC]VSE[ACPC]Q[ACPC]MHNLGKHLNSMERVEWLRKKLQDVHNF-NH2 [ACPC(1,5,7)], for which, in [1], the “Fold PTH” value came out at 36.7 fold and the “cAMP EC50” value was 2.99 nM. Moreover, the “cAMP response PTH2R/PTH1R” value in experiment [3] worked out at 11 ratio.
In the case of [ACPC]VSE[ACPC]Q[ACPC]LHDKGK[ACPC]IQD[ACPC]RRR[APC]LLE[APC]LL[Aib][ACPC]LHT[ACPC]-NH2 [CycD6 BA058 ACPC(1,5,7)], in [4], the “cAMP EC50” value was found to be 0.65 nM.
As for [ACPC]VSE[ACPC]Q[ACPC]LHDKGK[ACPC]IQD[ACPC]RRR[APC]FLH[APC]LIA[ACPC]IHT[ACPC]-NH2 [CycD6 hPTHrP(1-34) ACPC(1,5,7)], the “cAMP EC50” value in experiment [5] was found to be 1.08 nM.
For LMHNLGKHLNSMERVEWLRKKLQDVHNF-NH2 [hPTH(7-34)], in experiment [6], the “EC50(+)inhibitor/EC50(-)inhibitor” value amounted to 1.6 ratio and the “EC50 of PTH(1-34) signaling with 1 µM inhibitor” value is 0.25 nM.
For the molecule AVSEHQLLHDKGK[ACPC]IQD[ACPC]RRR[APC]FLH[APC]LIA[ACPC]IHT[ACPC]-NH2 [CycD6 hPTHrP(1-34)], in experiment [5], the “cAMP EC50” value was found to be 0.65 nM.
Turning to SVSEIQ[ACPC]MHNLGKHLNSMERVEWLRKKLQDVHNF-NH2 [ACPC(7) PTH(1-34)], the “Fold PTH” value in experiment [7] was determined as 1.3 fold; in experiment [8], 74 fold. Also, the “cAMP EC50” value in experiment [7] worked out at 0.12 nM; in experiment [8], 4600 nM. Besides, the “cAMP response PTH1R/PTH2R” value in [9] is 44 ratio.
Consider SVSEIQLMHNLGKHLNSMERVEWLRKKLQDVHNF-NH2 [PTH(1-34)], for which the “cAMP Max” value in [10] is 1 relative to PTH(1-34). Also, the “cAMP Max” value in [11] came to 65 cps × 10-3. In experiment [12], this molecule had an AUC-on of 92000 and an AUC-washout of 100000.

B1: B3 (peptide)
peptide: SVSEIQLMHNLGKHLNSMERVEWLRKKLQDVQNF-NH2
modifications: not fully specified (residue 32); printed as SVSEIQLMHNLGKHLNSMERVEWLRKKLQDVQNF-NH2; also: three β3 residues, positions not given here in text
notes: also called α/β-peptide B3
In the case of B1, the figures for the “cAMP EC50” value in [13], in experiment [14] and in [11] were 0.11 nM, 0.11 nM and 0.55 nM, respectively. Also, the results for the “cAMP Max” value in [13], in [14] and in experiment [11] were 1.08 relative to PTH(1-34), 234 cps × 10^-3 and 69 cps × 10-3, respectively. Moreover, the figures for the “cAMP pEC50” value in experiment [14] and in [11] were 9.94 and 9.26, respectively. Moreover, the IC50 was 80 nM in experiment [15], 80 nM in [16], 111 nM in experiment [17] and 8.6 nM in experiment [18]. Besides, the “-log (IC50)” value stood at 7.1 in experiment [16], 6.95 in experiment [17] and 8.07 in experiment [18].

B2: bPTH(7-34)dTrp12 (peptide)
peptide: FMHNL[dW]KHLSSMERVEWLRKKLQDVHNF-NH2
modifications: N-terminus assumed
SMILES: CSCC[C@H](NC(=O)[C@H](CO)NC(=O)[C@H](CO)NC(=O)[C@H](CC(C)C)NC(=O)[C@H](Cc1c[nH]cn1)NC(=O)[C@H](CCCCN)NC(=O)[C@@H](Cc1c[nH]c2ccccc12)NC(=O)[C@H](CC(C)C)NC(=O)[C@H](CC(N)=O)NC(=O)[C@H](Cc1c[nH]cn1)NC(=O)[C@H](CCSC)NC(=O)[C@@H](N)Cc1ccccc1)C(=O)N[C@@H](CCC(=O)O)C(=O)N[C@@H](CCCNC(=N)N)C(=O)N[C@H](C(=O)N[C@@H](CCC(=O)O)C(=O)N[C@@H](Cc1c[nH]c2ccccc12)C(=O)N[C@@H](CC(C)C)C(=O)N[C@@H](CCCNC(=N)N)C(=O)N[C@@H](CCCCN)C(=O)N[C@@H](CCCCN)C(=O)N[C@@H](CC(C)C)C(=O)N[C@@H](CCC(N)=O)C(=O)N[C@@H](CC(=O)O)C(=O)N[C@H](C(=O)N[C@@H](Cc1c[nH]cn1)C(=O)N[C@@H](CC(N)=O)C(=O)N[C@@H](Cc1ccccc1)C(N)=O)C(C)C)C(C)C
As to B2, in [6], the “EC50(+)inhibitor/EC50(-)inhibitor” value came to 60.1 ratio and the “EC50 of PTH(1-34) signaling with 1 µM inhibitor” value stood at 9.47 nM.
In the case of [ACPC]VSE[ACPC]Q[ACPC]LHDKGKSIQDLRRRFFLHKLIAEIHTA-NH2 (not fully specified; also: D6 β3 residues, positions not shown (marking lost)) [D6 hPTHrP(1-34) ACPC(1,5,7)], in experiment [5], the “cAMP EC50” value was 1.03 nM.
Regarding [ACPC]VSE[ACPC]Q[ACPC]LHDKGKSIQDLRRRELLEKLL[Aib]KLHTA-NH2 [BA058 ACPC(1,5,7)], in experiment [4], the “cAMP EC50” value stood at 0.26 nM.
The same measure, in the same setting: next, [ACPC]VSEHQ[ACPC]LHDKGK[ACPC]IQD[ACPC]RRR[APC]LLE[APC]LL[Aib][ACPC]LHT[ACPC]-NH2 [CycD6 BA058 ACPC(1,7)]: 18.9 nM.

By IC50 is commonly meant the midpoint of a concentration-inhibition curve.

For the origin of these results see patent publication US20140378382A1 (WISCONSIN ALUMNI RESEARCH FOUNDATION, published 2014).
